According to paper PMC4368098, “DICER-ARGONAUTE2 Complex in Continuous Fluorogenic Assays of RNA Interference Enzymes”:

B1: D10 (dsRNA)
RNA 1: CCUGAGGAAGAACUAAAUCCAAAGAUA
RNA 2: UCUUUGGAUUUAGUUCUUCCUCAGG
B2: D05 (dsRNA)
RNA 1: GGAACAUGAUGGUUCACUUUUUCAA
RNA 2: UUGAAAAAGUGAACCAUCAUGUUCCAU
B3: D01 (dsRNA)
RNA 1: ACCGGUUGAAUCUUCAGAUAUGAAA
RNA 2: UUUCAUAUCUGAAGAUUCAACCGGUUU
B4: D07 (dsRNA)
RNA 1: GGAUAAAAUUCUCAAUUCAGAGAAA
RNA 2: UUUCUCUGAAUUGAGAAUUUUAUCCAA
B5: D12 (dsRNA)
RNA 1: UACUCAGGACACAGAUUUAGACUUGGA
RNA 2: CAAGUCUAAAUCUGUGUCCUGAGUA
B6: D06 (dsRNA)
RNA 1: GGAUAGUGAUAUGGUCAAUGAAUUC
RNA 2: GAAUUCAUUGACCAUAUCACUAUCCAC
B7: D04 (dsRNA)
RNA 1: GUUCCUGAGGAAGAACUAAAUCCAA
RNA 2: UUGGAUUUAGUUCUUCCUCAGGAACUG
B8: D25 (dsRNA)
RNA 1: GCACCCCCACCUCUGGACUUGCCUUUC
RNA 2: AAGGCAAGUCCAGAGGUGGGGGUGC
B9: D09 (dsRNA)
RNA 1: CAGACACCUAGUCCUUCCGAUGGAAGC
RNA 2: UUCCAUCGGAAGGACUAGGUGUCUG
B10: D02 (dsRNA)
RNA 1: GCUGAUUUGUGAACCCAUUCCUCAC
RNA 2: GUGAGGAAUGGGUUCACAAAUCAGCAC
B11: D08 (dsRNA)
RNA 1: CCAGAAGAACUUUUAGGCCGCUCAAUU
RNA 2: UUGAGCGGCCUAAAAGUUCUUCUGG
B12: D03 (dsRNA)
RNA 1: CCGGUUGAAUCUUCAGAUAUGAAAA
RNA 2: UUUUCAUAUCUGAAGAUUCAACCGGUU
B13: D11 (dsRNA)
RNA 1: ACCUGAGCCUAAUAGUCCCAGUGAAUA
RNA 2: UUCACUGGGACUAUUAGGCUCAGGU

Molecular target: DICER;ARGONAUTE2 (AGO2) (human;human, UniProt Q9UPY3;Q9UKV8 1-1922;1-859, |)
Experiment: competition (fluorogenic siRNA processing); 80 nM BoPsi664, 30 nM each enzyme; Assay Buffer with 1 mM free Mg2+ (full composition not in the material), 37 C; indirect read-out by competitive inhibition of fluorogenic siRNA processing, no d
Conditions: protein: recombinant;recombinant, tags: C-terminal 6xHis with TEV site, tag removed by TEV;N-terminal 6xHis with TEV site
[1] = copies: 1;1, 3' overhang 2 nt on strand 1, other end blunt
[2] = copies: 1;1, 3' overhang 2 nt on strand 2, other end blunt

Binder	IC50 [1]	IC50 [2]
B1	633 nM	–
B2	–	209 nM
B3	–	56 nM
B4	–	282 nM
B5	453 nM	–
B6	–	474 nM
B7	–	180 nM
B8	796 nM	–
B9	767 nM	–
B10	–	142 nM
B11	1060 nM	–
B12	–	150 nM
B13	364 nM	–
